Data reported in patent US20250161408A1, “PEPTIDIC INHIBITORS OF AMYLOID SELF- AND CROSS-ASSEMBLY” (published 2025).
Non-standard residues stand in square brackets, D forms with d. NMeF = CN[C@@H](Cc1ccccc1)C(=O)O; NMeL = CN[C@@H](CC(C)C)C(=O)O; NMeV = CN[C@H](C(=O)O)C(C)C; Nle = CCCC[C@H](N)C(=O)O

T1: Fluos-IAPP (human, UniProt P10997, N-terminal fluorescein)
T1 peptide: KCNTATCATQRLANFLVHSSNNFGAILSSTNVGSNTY

T2: Fluos-Nle3-VF (N-terminal 5,6-carboxyfluorescein; X = norleucine (Nle); N-methyl on Val18 and Phe20)
T2 peptide: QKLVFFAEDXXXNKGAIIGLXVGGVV

B1: F3-LF (peptide)
peptide: H-QK[NMeL]V[NMeF]FAEDFFFNKGAIIGL[Nle]VGGVV-OH
SMILES: CCCC[C@H](NC(=O)[C@H](CC(C)C)NC(=O)CNC(=O)[C@@H](NC(=O)[C@@H](NC(=O)[C@H](C)NC(=O)CNC(=O)[C@H](CCCCN)NC(=O)[C@H](CC(N)=O)NC(=O)[C@H](Cc1ccccc1)NC(=O)[C@H](Cc1ccccc1)NC(=O)[C@H](Cc1ccccc1)NC(=O)[C@H](CC(=O)O)NC(=O)[C@H](CCC(=O)O)NC(=O)[C@H](C)NC(=O)[C@H](Cc1ccccc1)NC(=O)[C@H](Cc1ccccc1)N(C)C(=O)[C@@H](NC(=O)[C@H](CC(C)C)N(C)C(=O)[C@H](CCCCN)NC(=O)[C@@H](N)CCC(N)=O)C(C)C)[C@@H](C)CC)[C@@H](C)CC)C(=O)N[C@H](C(=O)NCC(=O)NCC(=O)N[C@H](C(=O)N[C@H](C(=O)O)C(C)C)C(C)C)C(C)C
B2: Nle3-VF (peptide)
peptide: H-QKL[NMeV]F[NMeF]AED[Nle][Nle][Nle]NKGAIIGL[Nle]VGGVV-OH
SMILES: CCCC[C@H](NC(=O)[C@H](CC(=O)O)NC(=O)[C@H](CCC(=O)O)NC(=O)[C@H](C)NC(=O)[C@H](Cc1ccccc1)N(C)C(=O)[C@H](Cc1ccccc1)NC(=O)[C@H](C(C)C)N(C)C(=O)[C@H](CC(C)C)NC(=O)[C@H](CCCCN)NC(=O)[C@@H](N)CCC(N)=O)C(=O)N[C@@H](CCCC)C(=O)N[C@@H](CCCC)C(=O)N[C@@H](CC(N)=O)C(=O)N[C@@H](CCCCN)C(=O)NCC(=O)N[C@@H](C)C(=O)N[C@H](C(=O)N[C@H](C(=O)NCC(=O)N[C@@H](CC(C)C)C(=O)N[C@@H](CCCC)C(=O)N[C@H](C(=O)NCC(=O)NCC(=O)N[C@H](C(=O)N[C@H](C(=O)O)C(C)C)C(C)C)C(C)C)[C@@H](C)CC)[C@@H](C)CC
B3: L3-LF (peptide)
peptide: H-QK[NMeL]V[NMeF]FAEDLLLNKGAIIGL[Nle]VGGVV-OH
SMILES: CCCC[C@H](NC(=O)[C@H](CC(C)C)NC(=O)CNC(=O)[C@@H](NC(=O)[C@@H](NC(=O)[C@H](C)NC(=O)CNC(=O)[C@H](CCCCN)NC(=O)[C@H](CC(N)=O)NC(=O)[C@H](CC(C)C)NC(=O)[C@H](CC(C)C)NC(=O)[C@H](CC(C)C)NC(=O)[C@H](CC(=O)O)NC(=O)[C@H](CCC(=O)O)NC(=O)[C@H](C)NC(=O)[C@H](Cc1ccccc1)NC(=O)[C@H](Cc1ccccc1)N(C)C(=O)[C@@H](NC(=O)[C@H](CC(C)C)N(C)C(=O)[C@H](CCCCN)NC(=O)[C@@H](N)CCC(N)=O)C(C)C)[C@@H](C)CC)[C@@H](C)CC)C(=O)N[C@H](C(=O)NCC(=O)NCC(=O)N[C@H](C(=O)N[C@H](C(=O)O)C(C)C)C(C)C)C(C)C
B4: Nle3-LF (peptide)
peptide: H-QK[NMeL]V[NMeF]FAED[Nle][Nle][Nle]NKGAIIGL[Nle]VGGVV-OH
SMILES: CCCC[C@H](NC(=O)[C@H](CC(=O)O)NC(=O)[C@H](CCC(=O)O)NC(=O)[C@H](C)NC(=O)[C@H](Cc1ccccc1)NC(=O)[C@H](Cc1ccccc1)N(C)C(=O)[C@@H](NC(=O)[C@H](CC(C)C)N(C)C(=O)[C@H](CCCCN)NC(=O)[C@@H](N)CCC(N)=O)C(C)C)C(=O)N[C@@H](CCCC)C(=O)N[C@@H](CCCC)C(=O)N[C@@H](CC(N)=O)C(=O)N[C@@H](CCCCN)C(=O)NCC(=O)N[C@@H](C)C(=O)N[C@H](C(=O)N[C@H](C(=O)NCC(=O)N[C@@H](CC(C)C)C(=O)N[C@@H](CCCC)C(=O)N[C@H](C(=O)NCC(=O)NCC(=O)N[C@H](C(=O)N[C@H](C(=O)O)C(C)C)C(C)C)C(C)C)[C@@H](C)CC)[C@@H](C)CC
B5: L3-VF (peptide)
peptide: H-QKL[NMeV]F[NMeF]AEDLLLNKGAIIGL[Nle]VGGVV-OH
SMILES: CCCC[C@H](NC(=O)[C@H](CC(C)C)NC(=O)CNC(=O)[C@@H](NC(=O)[C@@H](NC(=O)[C@H](C)NC(=O)CNC(=O)[C@H](CCCCN)NC(=O)[C@H](CC(N)=O)NC(=O)[C@H](CC(C)C)NC(=O)[C@H](CC(C)C)NC(=O)[C@H](CC(C)C)NC(=O)[C@H](CC(=O)O)NC(=O)[C@H](CCC(=O)O)NC(=O)[C@H](C)NC(=O)[C@H](Cc1ccccc1)N(C)C(=O)[C@H](Cc1ccccc1)NC(=O)[C@H](C(C)C)N(C)C(=O)[C@H](CC(C)C)NC(=O)[C@H](CCCCN)NC(=O)[C@@H](N)CCC(N)=O)[C@@H](C)CC)[C@@H](C)CC)C(=O)N[C@H](C(=O)NCC(=O)NCC(=O)N[C@H](C(=O)N[C@H](C(=O)O)C(C)C)C(C)C)C(C)C
B6: F3-VF (peptide)
peptide: H-QKL[NMeV]F[NMeF]AEDFFFNKGAIIGL[Nle]VGGVV-OH
SMILES: CCCC[C@H](NC(=O)[C@H](CC(C)C)NC(=O)CNC(=O)[C@@H](NC(=O)[C@@H](NC(=O)[C@H](C)NC(=O)CNC(=O)[C@H](CCCCN)NC(=O)[C@H](CC(N)=O)NC(=O)[C@H](Cc1ccccc1)NC(=O)[C@H](Cc1ccccc1)NC(=O)[C@H](Cc1ccccc1)NC(=O)[C@H](CC(=O)O)NC(=O)[C@H](CCC(=O)O)NC(=O)[C@H](C)NC(=O)[C@H](Cc1ccccc1)N(C)C(=O)[C@H](Cc1ccccc1)NC(=O)[C@H](C(C)C)N(C)C(=O)[C@H](CC(C)C)NC(=O)[C@H](CCCCN)NC(=O)[C@@H](N)CCC(N)=O)[C@@H](C)CC)[C@@H](C)CC)C(=O)N[C@H](C(=O)NCC(=O)NCC(=O)N[C@H](C(=O)N[C@H](C(=O)O)C(C)C)C(C)C)C(C)C

Target: T1, Fluos-IAPP
Test: fluorescence spectroscopic titration of Fluos-IAPP (5 nM, pH 7.4) with the ACM; app. KD
Protocol: On the right side of each figure panel, the corresponding binding curves are shown; data are means±SD from 3 binding curves. […] KDs (means±SD from 3 binding curves) are in Table 1.
(§1) Fluorescence spectroscopic studies were performed with a Jasco FP-6500 fluorescence spectrophotometer. Briefly, excitation was at 492 nm and spectra were measured between 500 and 600 nm. All titrations were performed in freshly made solutions of synthetic N-terminal fluorescently labeled peptide (5 nM) and various amounts of unlabeled peptide in 10 mM sodium phosphate buffer, pH 7.4 (1% HFIP) within 2-5 min following solution preparation. […] Apparent binding affinities (app. KDs) were estimated by using 1/1 binding models. However, due to the high self-assembly propensities of involved peptides more complex models might also apply. […] KDs are means (±SD) from three binding curves derived from three independent titration assays.
Binder B1 has a Kd of 0.0376 µM. B2 gave a Kd of 0.0695 µM. With B3 the Kd was 0.143 µM. B4 gave a Kd of 0.0554 µM. Work on B5 yielded a Kd of 0.0773 µM. In the case of B6, the Kd is reported as 0.015 µM.

What follows are binders tested against FITC-Aβ42 (Homo sapiens (Human), UniProt P05067, N-terminal fluorescein-isothiocyanate-β-Ala) (assay: fluorescence spectroscopic titration of FITC-Aβ42 (5 nM, pH 7.4) with the ACM; app. KD).
Protocol: Fluorescence spectroscopic studies were performed with a Jasco FP-6500 fluorescence spectrophotometer. Briefly, excitation was at 492 nm and spectra were measured between 500 and 600 nm. All titrations were performed in freshly made solutions of synthetic N-terminal fluorescently labeled peptide (5 nM) and various amounts of unlabeled peptide in 10 mM sodium phosphate buffer, pH 7.4 (1% HFIP) within 2-5 min following solution preparation. […] Apparent binding affinities (app. KDs) were estimated by using 1/1 binding models. However, due to the high self-assembly propensities of involved peptides more complex models might also apply.
Binder B1 has a Kd of 0.431 µM. B2 showed a Kd of 0.0145 µM. B3 was tested, and the Kd was 0.0026 µM. For B4, the Kd was 0.0111 µM. Binder B5 has a Kd of 0.038 µM. With B6 the Kd was 0.161 µM.

Target: T2, Fluos-Nle3-VF
Test: self-assembly: fluorescence spectroscopic titration of Fluos-Nle3-VF (5 nM) with Nle3-VF; app. KD
Protocol: as §1
Work on B2 yielded a Kd of 0.0519 µM.
